Experimental findings from patent US20170158742A1 (NATIONAL UNIVERSITY OF SINGAPORE, published 2017) are described below.

The labels stand for the following.
B1: Signal recognition particle 19kDa (other)
chain: MACAAARSPADQDRFICIYPAYLNNKKTIAEGRRIPISKAVENPTATEIQDVCSAVGLNVFLEKNKMYSREWNRDVQYRGRVRVQLKQEDGSLCLVQFPSRKSVMLYAAEMIPKLKTRTQKTGGADQSLQQGEGSKKGKGKKKK
notes: also called SRP19
B2: Vaccinia related kinase 1 (enzyme)
chain: MPRVKAAQAGRQSSAKRHLAEQFAVGEIITDMAKKEWKVGLPIGQGGFGCIYLADMNSSESVGSDAPCVVKVEPSDNGPLFTELKFYQRAAKPEQIQKWIRTRKLKYLGVPKYWGSGLHDKNGKSYRFMIMDRFGSDLQKIYEANAKRFSRKTVLQLSLRILDILEYIHEHEYVHGDIKASNLLLNYKNPDQVYLVDYGLAYRYCPEGVHKEYKEDPKRCHDGTIEFTSIDAHNGVAPSRRGDLEILGYCMIQWLTGHLPWEDNLKDPKYVRDSKIRYRENIASLMDKCFPEKNKPGEIAKYMETVKLLDYTEKPLYENLRDILLQGLKAIGSKDDGKLDLSVVENGGLKAKTITKKRKKEIEESKEPGVEDTEWSNTQTEEAIQTRSRTRKRVQK
notes: also called VRK1
B3: DIM1 dimethyladenosine transferase 1 homolog (S. cerevisiae) (enzyme)
chain: MPKVKSGAIGRRRGRQEQRRELKSAGGLMFNTGIGQHILKNPLIINSIIDKAALRPTDVVLEVGPGTGNMTVKLLEKAKKVVACELDPRLVAELHKRVQGTPVASKLQVLVGDVLKTDLPFFDTCVANLPYQISSPFVFKLLLHRPFFRCAILMFQREFALRLVAKPGDKLYCRLSINTQLLARVDHLMKVGKNNFRPPPKVESSVVRIEPKNPPPPINFQEWDGLVRITFVRKNKTLSAAFKSSAVQQLLEKNYRIHCSVHNIIIPEDFSIADKIQQILTSTGFSDKRARSMDIDDFIRLLHGFNAEGIHFS
notes: also called DIMT1

The experiment has as its target biotinylated full-length Dengue virus capsid (DENV C) protein (Dengue virus serotype 2 (NGC strain)). In words: ELISA, coated bought protein, biotinylated DENV C as probe, streptavidin-HRP. For orientation: In an ELISA, binding on a coated surface is turned into a signal by an enzyme label.
Turning to B1, the binding result is “binds”.

On to B2, for which the binding result is listed as “binds”.

Regarding B3, the binding result is “binds”.
